Target: T1, Msn5_(βC-helix-tail) (residues 1179-1224 removed) (S. cerevisiae, UniProt P52918 1-1178)
T1 sequence (looked up): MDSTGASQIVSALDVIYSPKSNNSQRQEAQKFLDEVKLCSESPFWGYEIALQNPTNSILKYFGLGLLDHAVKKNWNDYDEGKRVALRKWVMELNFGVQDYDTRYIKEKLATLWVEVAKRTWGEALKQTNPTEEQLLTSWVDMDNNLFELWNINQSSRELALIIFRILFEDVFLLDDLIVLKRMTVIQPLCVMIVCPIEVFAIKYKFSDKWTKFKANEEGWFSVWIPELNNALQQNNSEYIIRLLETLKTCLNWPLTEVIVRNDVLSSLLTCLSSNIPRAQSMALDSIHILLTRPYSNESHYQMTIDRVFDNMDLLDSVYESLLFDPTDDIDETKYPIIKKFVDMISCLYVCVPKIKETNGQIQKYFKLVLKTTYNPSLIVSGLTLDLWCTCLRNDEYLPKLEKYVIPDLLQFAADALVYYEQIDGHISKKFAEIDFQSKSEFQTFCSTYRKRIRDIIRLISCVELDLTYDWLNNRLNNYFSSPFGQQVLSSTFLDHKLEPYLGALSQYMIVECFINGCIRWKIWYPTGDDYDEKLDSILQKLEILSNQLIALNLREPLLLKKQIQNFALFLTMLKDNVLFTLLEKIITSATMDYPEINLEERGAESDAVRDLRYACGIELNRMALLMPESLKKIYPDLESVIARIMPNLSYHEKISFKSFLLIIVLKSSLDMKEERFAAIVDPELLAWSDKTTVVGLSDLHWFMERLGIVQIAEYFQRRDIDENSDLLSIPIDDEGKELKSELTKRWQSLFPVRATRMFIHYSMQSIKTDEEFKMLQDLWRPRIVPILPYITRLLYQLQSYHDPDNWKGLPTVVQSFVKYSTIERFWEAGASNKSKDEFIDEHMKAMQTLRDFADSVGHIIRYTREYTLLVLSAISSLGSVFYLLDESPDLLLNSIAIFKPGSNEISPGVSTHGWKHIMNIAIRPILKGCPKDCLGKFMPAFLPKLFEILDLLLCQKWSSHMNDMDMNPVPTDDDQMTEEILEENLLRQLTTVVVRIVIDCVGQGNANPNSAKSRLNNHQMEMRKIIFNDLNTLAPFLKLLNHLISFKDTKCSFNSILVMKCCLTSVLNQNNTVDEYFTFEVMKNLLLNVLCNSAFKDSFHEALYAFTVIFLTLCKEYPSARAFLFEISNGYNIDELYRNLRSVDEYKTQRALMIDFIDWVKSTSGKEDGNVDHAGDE
Experiment: pull-down

binding result: binds
B1: GST-pPho4_(1-200) (domain or fragment, S. cerevisiae, UniProt P07270 1-200, looked up)
chain: MGRTTSEGIHGFVDDLEPKSSILDKVGDFITVNTKRHDGREDFNEQNDELNSQENHNSSENGNENENEQDSLALDDLDRAFELVEGMDMDWMMPSHAHHSPATTATIKPRLLYSPLIHTQSAVPVTISPNLVATATSTTSANKVTKNKSNSSPYLNKRRGKPGPDSATSLFELPDSVIPTPKPKPKPKQYPKVILPSNST
modifications: phosphoserine at 100, 114, 128, 152 (in vitro phosphorylation by Pho80-Pho85)
